Measurements taken from publication PMC6311151 (Biochimica et biophysica acta. Molecular and cell biology …, 2018).

Biological target: the molecule itself
Assay: SEC

B1: Gloeobacter ligand-gated ion channel (natural protein)
chain: QDMVSPPPPIADEPLTVNTGIYLIECYSLDDKAETFKVNAFLSLSWKDRRLAFDPVRSGVRVKTYEPEAIWIPEIRFVNVENARDADVVDISVSPDGTVQYLERFSARVLSPLDFRRYPFDSQTLHIYLIVRSVDTRNIVLAVDLEKVGKNDDVFLTGWDIESFTAVVKPANFALEDRLESKLDYQLRISRQYFSYIPNIILPMLFILFISWTAFWSTSYEANVTLVVSTLIAHIAFNILVETNLPKTPYMTYTGAIIFMIYLFYFVAVIEVTVQHYLKVESQPARAASITRASRIAFPVVFLLANIILAFLFFGF
B1 was tested. Which “stoichiometry N” value did it give?
Its value is 5.
